Assay results reported in patent US20250262210A1 (TRUSTEES OF COLUMBIA UNIVERSITY IN THE CITY OF NEW YORK, published 2025).

Legend:
Assay in all cases: IP/MS, LZTR1 wild type-FLAG, U87
CTDP1 = biological target: T1, CTDP1 (human, UniProt Q9Y5B0 1-961, limits assumed)
T1 sequence (looked up): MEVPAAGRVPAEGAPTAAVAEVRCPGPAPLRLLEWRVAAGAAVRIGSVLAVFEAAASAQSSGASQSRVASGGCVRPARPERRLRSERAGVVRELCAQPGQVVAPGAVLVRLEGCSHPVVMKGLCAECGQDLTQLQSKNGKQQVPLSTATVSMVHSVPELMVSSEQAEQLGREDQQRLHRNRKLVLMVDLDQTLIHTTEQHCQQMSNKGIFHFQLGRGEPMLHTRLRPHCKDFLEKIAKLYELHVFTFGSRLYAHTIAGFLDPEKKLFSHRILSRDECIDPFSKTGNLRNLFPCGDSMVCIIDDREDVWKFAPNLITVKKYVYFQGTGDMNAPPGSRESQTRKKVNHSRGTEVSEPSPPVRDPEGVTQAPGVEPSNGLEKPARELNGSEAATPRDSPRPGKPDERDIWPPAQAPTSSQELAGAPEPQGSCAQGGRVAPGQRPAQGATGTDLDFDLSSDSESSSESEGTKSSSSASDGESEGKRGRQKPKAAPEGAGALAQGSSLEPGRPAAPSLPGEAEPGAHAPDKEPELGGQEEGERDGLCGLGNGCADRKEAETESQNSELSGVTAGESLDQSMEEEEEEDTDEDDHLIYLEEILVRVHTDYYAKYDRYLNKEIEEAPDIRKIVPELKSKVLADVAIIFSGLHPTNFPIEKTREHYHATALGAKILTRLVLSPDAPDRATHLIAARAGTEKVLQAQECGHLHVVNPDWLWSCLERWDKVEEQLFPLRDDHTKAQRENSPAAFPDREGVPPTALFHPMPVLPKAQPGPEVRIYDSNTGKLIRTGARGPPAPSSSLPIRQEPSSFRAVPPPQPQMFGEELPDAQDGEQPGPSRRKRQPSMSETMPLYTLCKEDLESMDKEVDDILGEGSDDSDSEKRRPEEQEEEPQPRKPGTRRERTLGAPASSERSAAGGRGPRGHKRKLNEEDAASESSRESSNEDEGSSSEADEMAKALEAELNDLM
In short: (§1)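 Read-out: spectral counts from LC-MS/MS (Orbitrap Fusion) after MaxQuant identification. Variable modifications were Met oxidation, protein N-terminal acetylation and N/Q deamidation.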

MTR = MTR (human, UniProt Q99707 1-1265, limits assumed)
In short: as §1

PPFIBP1 = biological target: T2, PPFIBP1 (human, UniProt Q86W92 1-1011, limits assumed)
T2 sequence (looked up): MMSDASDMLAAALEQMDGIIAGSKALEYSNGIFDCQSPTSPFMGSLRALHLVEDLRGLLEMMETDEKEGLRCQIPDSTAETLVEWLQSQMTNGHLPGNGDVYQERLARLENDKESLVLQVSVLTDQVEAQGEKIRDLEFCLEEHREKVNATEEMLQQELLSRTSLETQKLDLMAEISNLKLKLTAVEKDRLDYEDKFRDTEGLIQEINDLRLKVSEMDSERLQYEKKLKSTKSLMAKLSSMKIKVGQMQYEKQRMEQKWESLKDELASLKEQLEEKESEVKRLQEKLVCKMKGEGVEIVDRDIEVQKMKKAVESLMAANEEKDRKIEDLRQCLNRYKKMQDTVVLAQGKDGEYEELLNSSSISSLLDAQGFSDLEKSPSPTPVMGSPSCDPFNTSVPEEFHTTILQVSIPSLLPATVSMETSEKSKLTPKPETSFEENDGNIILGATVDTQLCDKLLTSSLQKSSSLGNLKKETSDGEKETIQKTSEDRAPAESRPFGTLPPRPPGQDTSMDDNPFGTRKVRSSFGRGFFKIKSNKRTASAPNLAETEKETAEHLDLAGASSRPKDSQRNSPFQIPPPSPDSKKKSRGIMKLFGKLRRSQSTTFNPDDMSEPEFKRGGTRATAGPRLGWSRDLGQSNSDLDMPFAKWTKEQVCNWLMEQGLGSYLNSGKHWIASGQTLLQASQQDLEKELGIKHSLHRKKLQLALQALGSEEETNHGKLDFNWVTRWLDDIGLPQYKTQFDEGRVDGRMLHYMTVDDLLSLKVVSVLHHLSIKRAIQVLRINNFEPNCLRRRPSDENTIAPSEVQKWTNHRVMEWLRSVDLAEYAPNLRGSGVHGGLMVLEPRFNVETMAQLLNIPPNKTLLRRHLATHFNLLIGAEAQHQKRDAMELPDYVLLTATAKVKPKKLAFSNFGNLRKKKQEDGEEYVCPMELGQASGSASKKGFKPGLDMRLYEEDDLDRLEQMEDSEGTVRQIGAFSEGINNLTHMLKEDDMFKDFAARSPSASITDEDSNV
In short: as §1

CDC42BPB = CDC42BPB (human, UniProt Q9Y5S2 1-1711)
In short: as §1

MTR, sequence (Q99707 whole entry): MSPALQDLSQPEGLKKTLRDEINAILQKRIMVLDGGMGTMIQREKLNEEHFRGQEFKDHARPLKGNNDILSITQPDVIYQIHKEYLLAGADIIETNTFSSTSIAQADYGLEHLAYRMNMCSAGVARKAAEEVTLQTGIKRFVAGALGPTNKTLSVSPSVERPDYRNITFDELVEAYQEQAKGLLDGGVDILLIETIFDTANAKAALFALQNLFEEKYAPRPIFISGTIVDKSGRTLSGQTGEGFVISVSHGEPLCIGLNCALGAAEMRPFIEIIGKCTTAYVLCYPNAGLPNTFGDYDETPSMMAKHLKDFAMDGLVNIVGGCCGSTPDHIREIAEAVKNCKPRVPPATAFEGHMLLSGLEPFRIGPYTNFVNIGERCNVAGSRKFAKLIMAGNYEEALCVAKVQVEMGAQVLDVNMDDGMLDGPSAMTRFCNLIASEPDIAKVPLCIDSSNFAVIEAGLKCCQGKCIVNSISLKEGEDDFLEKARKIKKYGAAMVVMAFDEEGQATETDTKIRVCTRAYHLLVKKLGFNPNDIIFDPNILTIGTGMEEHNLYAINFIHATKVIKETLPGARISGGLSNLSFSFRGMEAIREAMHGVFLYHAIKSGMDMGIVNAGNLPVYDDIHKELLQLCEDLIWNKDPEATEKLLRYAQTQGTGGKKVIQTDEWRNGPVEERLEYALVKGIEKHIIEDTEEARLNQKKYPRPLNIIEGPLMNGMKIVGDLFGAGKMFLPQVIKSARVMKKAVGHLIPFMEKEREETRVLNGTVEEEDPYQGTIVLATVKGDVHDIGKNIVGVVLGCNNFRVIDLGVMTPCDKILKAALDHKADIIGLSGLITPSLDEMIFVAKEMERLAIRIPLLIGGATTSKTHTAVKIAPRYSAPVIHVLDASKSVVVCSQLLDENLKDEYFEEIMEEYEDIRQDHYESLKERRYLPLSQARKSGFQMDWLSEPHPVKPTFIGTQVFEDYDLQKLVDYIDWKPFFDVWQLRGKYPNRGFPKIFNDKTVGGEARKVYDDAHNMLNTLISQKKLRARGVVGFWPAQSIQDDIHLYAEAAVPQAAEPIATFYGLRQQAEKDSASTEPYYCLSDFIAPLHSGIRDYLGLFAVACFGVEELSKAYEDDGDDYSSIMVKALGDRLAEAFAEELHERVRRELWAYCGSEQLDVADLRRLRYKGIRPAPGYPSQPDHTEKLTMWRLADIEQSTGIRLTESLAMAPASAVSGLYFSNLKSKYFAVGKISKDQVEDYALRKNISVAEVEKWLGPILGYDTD
CDC42BPB, sequence (Q9Y5S2 whole entry): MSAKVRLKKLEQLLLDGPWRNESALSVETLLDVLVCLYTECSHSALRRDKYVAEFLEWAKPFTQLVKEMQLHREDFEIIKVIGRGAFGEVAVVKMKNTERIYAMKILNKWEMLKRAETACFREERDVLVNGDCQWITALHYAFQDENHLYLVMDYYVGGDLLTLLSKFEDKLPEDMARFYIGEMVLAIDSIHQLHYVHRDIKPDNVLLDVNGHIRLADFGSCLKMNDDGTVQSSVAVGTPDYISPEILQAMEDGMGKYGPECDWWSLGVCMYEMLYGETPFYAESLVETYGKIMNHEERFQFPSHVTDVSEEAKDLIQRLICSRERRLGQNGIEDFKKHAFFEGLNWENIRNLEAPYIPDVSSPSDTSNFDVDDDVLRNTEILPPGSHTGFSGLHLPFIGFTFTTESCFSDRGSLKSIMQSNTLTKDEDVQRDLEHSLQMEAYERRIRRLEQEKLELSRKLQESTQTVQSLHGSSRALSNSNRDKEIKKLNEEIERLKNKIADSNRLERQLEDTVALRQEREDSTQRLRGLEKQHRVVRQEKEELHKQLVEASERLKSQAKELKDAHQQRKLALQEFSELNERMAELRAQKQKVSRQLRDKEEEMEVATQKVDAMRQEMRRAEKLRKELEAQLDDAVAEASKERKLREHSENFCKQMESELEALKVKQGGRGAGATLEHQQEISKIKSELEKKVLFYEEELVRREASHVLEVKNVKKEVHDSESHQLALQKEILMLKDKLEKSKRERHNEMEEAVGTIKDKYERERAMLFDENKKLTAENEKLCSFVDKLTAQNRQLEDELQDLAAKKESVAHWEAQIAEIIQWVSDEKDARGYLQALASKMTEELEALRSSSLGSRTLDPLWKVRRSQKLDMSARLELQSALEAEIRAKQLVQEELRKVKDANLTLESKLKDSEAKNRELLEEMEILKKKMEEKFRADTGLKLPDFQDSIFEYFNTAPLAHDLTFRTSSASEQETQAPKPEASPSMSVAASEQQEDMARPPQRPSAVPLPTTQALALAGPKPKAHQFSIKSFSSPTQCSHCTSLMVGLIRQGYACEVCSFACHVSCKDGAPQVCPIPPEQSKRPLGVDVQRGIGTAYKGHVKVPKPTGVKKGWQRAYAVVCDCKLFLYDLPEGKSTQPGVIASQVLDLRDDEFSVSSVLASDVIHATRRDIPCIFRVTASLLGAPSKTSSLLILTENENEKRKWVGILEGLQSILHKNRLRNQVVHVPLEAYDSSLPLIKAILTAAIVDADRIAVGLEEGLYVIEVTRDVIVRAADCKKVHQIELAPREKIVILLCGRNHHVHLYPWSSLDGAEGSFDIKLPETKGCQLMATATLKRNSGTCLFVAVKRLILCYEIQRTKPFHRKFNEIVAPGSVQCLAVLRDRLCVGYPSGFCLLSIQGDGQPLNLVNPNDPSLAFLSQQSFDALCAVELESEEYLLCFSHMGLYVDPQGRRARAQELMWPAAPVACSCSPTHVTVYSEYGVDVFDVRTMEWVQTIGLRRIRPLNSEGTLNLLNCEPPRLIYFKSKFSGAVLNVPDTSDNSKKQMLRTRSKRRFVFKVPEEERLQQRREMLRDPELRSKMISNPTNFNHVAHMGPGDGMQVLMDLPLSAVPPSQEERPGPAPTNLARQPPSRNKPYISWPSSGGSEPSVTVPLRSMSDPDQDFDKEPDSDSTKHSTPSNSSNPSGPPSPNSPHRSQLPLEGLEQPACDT

binding result (CTDP1): binds
binding result (MTR): binds
binding result (PPFIBP1): binds
binding result (CDC42BPB): binds
B1: LZTR1-FLAG (other, human, UniProt Q8N653 1-840, looked up)
chain: MAGPGSTGGQIGAAALAGGARSKVAPSVDFDHSCSDSVEYLTLNFGPFETVHRWRRLPPCDEFVGARRSKHTVVAYKDAIYVFGGDNGKTMLNDLLRFDVKDCSWCRAFTTGTPPAPRYHHSAVVYGSSMFVFGGYTGDIYSNSNLKNKNDLFEYKFATGQWTEWKIEGRLPVARSAHGATVYSDKLWIFAGYDGNARLNDMWTIGLQDRELTCWEEVAQSGEIPPSCCNFPVAVCRDKMFVFSGQSGAKITNNLFQFEFKDKTWTRIPTEHLLRGSPPPPQRRYGHTMVAFDRHLYVFGGAADNTLPNELHCYDVDFQTWEVVQPSSDSEVGGAEVPERACASEEVPTLTYEERVGFKKSRDVFGLDFGTTSAKQPTQPASELPSGRLFHAAAVISDAMYIFGGTVDNNIRSGEMYRFQFSCYPKCTLHEDYGRLWESRQFCDVEFVLGEKEECVQGHVAIVTARSRWLRRKITQARERLAQKLEQEAAPVPREAPGVAAGGARPPLLHVAIREAEARPFEVLMQFLYTDKIKYPRKGHVEDVLLIMDVYKLALSFQLCRLEQLCRQYIEASVDLQNVLVVCESAARLQLSQLKEHCLNFVVKESHFNQVIMMKEFERLSSPLIVEIVRRKQQPPPRTPLDQPVDIGTSLIQDMKAYLEGAGAEFCDITLLLDGHPRPAHKAILAARSSYFEAMFRSFMPEDGQVNISIGEMVPSRQAFESMLRYIYYGEVNMPPEDSLYLFAAPYYYGFYNNRLQAYCKQNLEMNVTVQNVLQILEAADKTQALDMKRHCLHIIVHQFTKVSKLPTLRSLSQQLLLDIIDSLASHISDKQCAELGADI
notes: Expressed in HEK 293T, HeLa or U87 cells; used as cell lysate; also called LZTR1 wild type-FLAG; LZTR1 WT; not shown: FLAG tag at the C-terminus
